{"source": "paper PMC3484126", "binders": {"B1": {"name": "*P (dsDNA)", "DNA 1": "GGACATGTCCGGACATGTCC", "DNA 2": "GGACATGTCCGGACATGTCC"}, "B2": {"name": "*K-1 (dsDNA)", "DNA 1": "AGGGTGTGGCCCGC", "DNA 2": "GCGGGCCACACCCT"}, "B3": {"name": "*K-2 (dsDNA)", "DNA 1": "GGGCCACCCCGCC", "DNA 2": "GGCGGGGTGGCCC"}}, "key": {"KLF4 full-length [1]": {"target": "T1, KLF4 full-length (UniProt O43474-1 1-479)", "T1 sequence (O43474 other isoform, or with tags, fused parts or gaps)": "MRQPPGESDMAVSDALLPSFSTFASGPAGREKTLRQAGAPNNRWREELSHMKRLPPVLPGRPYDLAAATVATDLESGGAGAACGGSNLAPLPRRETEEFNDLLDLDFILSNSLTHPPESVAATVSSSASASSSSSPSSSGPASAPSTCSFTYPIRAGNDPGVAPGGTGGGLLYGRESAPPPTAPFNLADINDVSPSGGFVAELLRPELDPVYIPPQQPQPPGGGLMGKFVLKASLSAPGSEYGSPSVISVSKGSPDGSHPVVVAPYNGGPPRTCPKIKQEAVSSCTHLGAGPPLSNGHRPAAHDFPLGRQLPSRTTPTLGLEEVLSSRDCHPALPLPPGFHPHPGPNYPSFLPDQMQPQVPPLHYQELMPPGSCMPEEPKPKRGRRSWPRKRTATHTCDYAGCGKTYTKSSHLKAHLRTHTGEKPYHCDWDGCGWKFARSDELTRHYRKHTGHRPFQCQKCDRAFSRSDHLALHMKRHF", "conditions": "protein: recombinant; tags: N-terminal 6xHis-lipoyl-TEV tag, cleaved; label: 5' Alexa488"}, "KLF4 full-length [2]": {"target": "T1, KLF4 full-length", "conditions": "protein: recombinant; tags: N-terminal 6xHis-lipoyl-TEV tag, cleaved; label: 5' fluorescein"}, "KLF4 full-length [3]": {"target": "T1, KLF4 full-length", "conditions": "protein: recombinant; tags: N-terminal 6xHis-lipoyl-TEV tag, cleaved; label: 5' fluorescein", "remark": "listed apart in the source"}}, "note": "Read-outs that look alike come from different tables or passages of the source.", "data": [{"binder": "B1", "values": [{"measurement": "binding result", "setting": "KLF4 full-length [1]", "value": "no binding"}]}, {"binder": "B2", "values": [{"measurement": "binding result", "setting": "KLF4 full-length [2]", "value": "binds"}]}, {"binder": "B3", "values": [{"measurement": "binding signal", "setting": "KLF4 full-length [3]", "value": 100, "unit": "fold weaker than *K-1"}]}]}
